Substitutions are numbered along the chain they refer to. “And” between values parts separate entries of the source, which are not always exact repeats. Equal entries are not always repeated.
B1: Antibody 11 (SS6V11-E7) (antibody, V domains shown)
VH: QVQLQESGPGLVKPSETLSLTCTVSGGFIGPHYWSWVRQPPGKGLEWIGYIYISGSTNYNPSLKSRLTISVDMSKSQFSLTLSSATAADTAVYYCARGGGYLETGPFEYWGQGTLVTVSS
VL: DIVMTQSPLSLPVTPGEPASISCRSSQSLLQNNGYNYLAWYLQKPGQSPQLLIYLSSTRASGVPDRFSGSGSGTDFTLKISRVEAEDVGVYYCMQSLQIPGTFGQGTRLEIK
B2: Antibody 20 (SS6V20-F5) (antibody, V domains shown)
VH: QVQLQESGPGLVKPSETLSLTCTVSGGSIIGYYWSWIRQPPGKGLEWIGYIYFSANTNYNPSLKSRVTMSVDMSKKQFSLKLRSVTAADTAVYYCARGGGYLETGPLDFWGQGILVTVSS
VL: B1 VL with L30M, N32L, K44R, S56G, S81T, S96G
B3: Antibody 13 (SS6V13-F1) (antibody, V domains shown)
VH: QVQLQESGPGLVKPSETLSLTCSVSGVSILGSYWGWIRQPPGTGLQWIGYIYFSENTNYNPSLQSRVTMSLDTSKNLLSLKLSSVTAADTAVYYCARGGGYLETGPFDSWGQGTLVTVSS
VL: B1 VL with S28G, L30V, N32S, S56G, T58N, S96G, I99T

The binders below were run against SARS-COV-2 Beta full-length spike (SARS-CoV-2 Beta) (assay: cell-based or functional assay).

Binder	pseudovirus neutralization NT50
B1	< 10 ng/ml and < 0.067 nM
B2	< 10 ng/ml and < 0.067 nM
B3	< 10 ng/ml and < 0.067 nM

What follows are binders tested against SARS-COV-2 Alpha full-length spike (SARS-CoV-2 Alpha) (assay: cell-based or functional assay).

Binder	pseudovirus neutralization NT50
B1	< 10 ng/ml and < 0.067 nM
B2	< 10 ng/ml and < 0.067 nM
B3	< 10 ng/ml and < 0.067 nM

These binders were tested against SARS-COV-2 Delta full-length spike (SARS-CoV-2 Delta) (assay: cell-based or functional assay).

Binder	pseudovirus neutralization NT50
B1	< 10 ng/ml and < 0.067 nM
B2	< 10 ng/ml and < 0.067 nM
B3	< 10 ng/ml and < 0.067 nM

Each binder was assayed against SARS-COV-2 Gamma full-length spike (SARS-CoV-2 Gamma) (assay: cell-based or functional assay).

Binder	pseudovirus neutralization NT50
B1	< 10 ng/ml and < 0.067 nM
B2	< 10 ng/ml and < 0.067 nM
B3	< 10 ng/ml and < 0.067 nM
